Results published in US20180194839A1 (Novartis, published 2018).
Changes are numbered by the printed parent chain. Numbers in names are those of the source.

Experiments:
Experiment in all cases: ELISA, coated cytokine, Ab 10 µg/ml;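 further: antibodies incubated 3 h at room temperature on the coated wells, binding detected with alkaline phosphatase-conjugated anti-IgG secondary antibodies matching the species of each test antibody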
[1] = molecular target: T1, recombinant human IL-17A (SEQ ID NO: 76) (human, UniProt Q16552 24-155, limits assumed)
T1 construct: homodimer; also called huIL-17A; rhuIL-17A
T1 sequence: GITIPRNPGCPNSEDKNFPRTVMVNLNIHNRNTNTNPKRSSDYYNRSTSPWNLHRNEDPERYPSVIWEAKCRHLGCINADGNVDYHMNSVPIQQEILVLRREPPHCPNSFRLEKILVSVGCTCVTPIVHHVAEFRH

[2] = molecular target: T2, recombinant human IL-17A/F heterodimer (human, UniProt Q16552 24-155; Q96PD4 31-163, limits assumed)
T2 construct: heterodimer of an IL-17A subunit and an IL-17F subunit; also called huIL-17A/F; rhuIL-17A/F
T2 sequence (looked up) 1: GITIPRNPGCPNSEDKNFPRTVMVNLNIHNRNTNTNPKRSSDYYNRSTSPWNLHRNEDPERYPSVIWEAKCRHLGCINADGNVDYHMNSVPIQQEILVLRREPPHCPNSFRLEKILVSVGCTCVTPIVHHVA
T2 sequence (looked up) 2: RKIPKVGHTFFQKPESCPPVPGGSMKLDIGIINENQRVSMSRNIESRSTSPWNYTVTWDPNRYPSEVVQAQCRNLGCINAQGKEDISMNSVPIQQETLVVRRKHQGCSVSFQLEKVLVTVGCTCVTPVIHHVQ

[3] = molecular target: T3, recombinant human IL-1β (Novartis) (human, UniProt P01584 117-269)
T3 construct: also called huIL1β

[4] = molecular target: T4, recombinant human IL-3 (R&D Systems Cat#203-IL/CF) (human, UniProt P08700 20-152)
T4 construct: also called huIL-3
T4 sequence (looked up): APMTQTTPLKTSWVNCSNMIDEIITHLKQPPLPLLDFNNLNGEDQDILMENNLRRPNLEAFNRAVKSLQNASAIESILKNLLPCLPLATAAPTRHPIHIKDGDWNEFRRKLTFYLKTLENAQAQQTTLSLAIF

[5] = molecular target: T5, recombinant human IL-6 (R&D Systems Cat#206-IL-1010/CF) (human, UniProt P05231 30-212)
T5 construct: also called huIL-6

[6] = molecular target: T6, recombinant human IL-8 (R&D Systems Cat#208-IL-010/CF) (human, UniProt P10145 28-99)
T6 construct: also called huIL-8
T6 sequence (looked up): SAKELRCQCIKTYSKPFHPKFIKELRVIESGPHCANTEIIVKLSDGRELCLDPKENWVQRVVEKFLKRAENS

[7] = molecular target: T7, recombinant human IL-12 (R&D Systems Cat#219-IL-005/CF) (human, UniProt P29459 23-219; P29460 23-328)
T7 construct: also called huIL-12
T7 sequence (looked up) 1: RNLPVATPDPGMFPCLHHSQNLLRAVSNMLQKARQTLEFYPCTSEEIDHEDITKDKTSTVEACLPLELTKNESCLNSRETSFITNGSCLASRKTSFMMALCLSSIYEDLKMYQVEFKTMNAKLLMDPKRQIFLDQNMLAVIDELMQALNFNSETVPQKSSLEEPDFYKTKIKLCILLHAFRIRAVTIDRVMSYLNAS
T7 sequence (looked up) 2: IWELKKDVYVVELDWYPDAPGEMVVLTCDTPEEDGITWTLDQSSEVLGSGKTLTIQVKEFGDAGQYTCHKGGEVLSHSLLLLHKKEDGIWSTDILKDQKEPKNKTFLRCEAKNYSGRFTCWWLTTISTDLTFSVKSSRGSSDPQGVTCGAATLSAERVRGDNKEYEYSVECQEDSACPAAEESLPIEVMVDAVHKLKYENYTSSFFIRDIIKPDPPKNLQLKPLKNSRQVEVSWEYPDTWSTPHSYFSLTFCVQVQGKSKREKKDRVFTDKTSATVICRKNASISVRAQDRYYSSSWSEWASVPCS

[8] = molecular target: T8, recombinant human IL-13 (Novartis) (human, UniProt P35225 35-146, limits assumed)
T8 construct: also called huIL-13
T8 sequence (P35225 35-146 limits assumed): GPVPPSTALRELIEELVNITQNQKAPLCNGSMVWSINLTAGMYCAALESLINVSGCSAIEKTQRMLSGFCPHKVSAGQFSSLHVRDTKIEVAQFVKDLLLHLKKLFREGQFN

[9] = molecular target: T9, recombinant human IL-18 (MBL Cat# B003-5) (human, UniProt Q14116 37-193)
T9 construct: also called huIL-18
T9 sequence (looked up): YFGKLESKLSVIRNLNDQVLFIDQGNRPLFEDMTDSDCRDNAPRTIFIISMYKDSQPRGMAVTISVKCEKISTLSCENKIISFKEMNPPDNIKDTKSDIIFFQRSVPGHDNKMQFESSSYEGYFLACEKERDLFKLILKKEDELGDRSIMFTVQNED

[10] = molecular target: T10, recombinant human IL-20 (Novartis) (human, UniProt Q9NYY1 25-176, limits assumed)
T10 construct: also called huIL-20
T10 sequence (looked up): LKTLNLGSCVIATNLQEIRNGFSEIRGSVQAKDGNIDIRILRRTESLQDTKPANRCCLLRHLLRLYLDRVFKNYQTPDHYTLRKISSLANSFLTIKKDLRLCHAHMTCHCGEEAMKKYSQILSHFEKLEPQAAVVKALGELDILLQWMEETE

[11] = molecular target: T11, recombinant human IFNγ (Roche) (human, UniProt P01579 24-166, limits assumed)
T11 construct: also called huIFNγ
T11 sequence (looked up): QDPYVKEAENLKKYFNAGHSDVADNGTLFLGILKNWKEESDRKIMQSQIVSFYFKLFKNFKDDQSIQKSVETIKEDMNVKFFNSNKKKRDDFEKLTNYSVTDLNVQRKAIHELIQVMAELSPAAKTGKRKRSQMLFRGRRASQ

[12] = molecular target: T12, recombinant human TNFα (Novartis) (human, UniProt P01375 77-233)
T12 construct: also called huTNFα
T12 sequence (P01375 77-233 limits assumed): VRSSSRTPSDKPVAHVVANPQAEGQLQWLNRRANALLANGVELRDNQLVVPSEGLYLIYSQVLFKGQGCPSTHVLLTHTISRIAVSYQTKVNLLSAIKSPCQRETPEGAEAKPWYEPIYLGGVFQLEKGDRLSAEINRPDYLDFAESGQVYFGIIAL

[13] = molecular target: T13, recombinant human TGFβ2 (Novartis) (human, UniProt P61812 303-414)
T13 construct: also called huTGFβ2
T13 sequence (looked up): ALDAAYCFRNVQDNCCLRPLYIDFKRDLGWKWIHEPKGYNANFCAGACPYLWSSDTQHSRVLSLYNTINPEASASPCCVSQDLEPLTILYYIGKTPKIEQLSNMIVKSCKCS

B1: XAB4 (antibody, human IgG1, kappa, V domains shown)
VH: EVQLVESGGDLVQPGGSLRLSCAASGFTFSSYWMSWVRQAPGKGLEWVANIKQDGSEKYYVDSVKGRFTISRDNAKNSLYLQMNSLRAEDTAVYYCARDRGSLYYWGQGTLVTVSS
VL: AIQLTQSPSSLSASVGDRVTITCRPSQGINWELAWYQQKPGKAPKLLIYDASSLEQGVPSRFSGSGSGTDFTLTISSLQPEDFATYYCQQFNSYPLTFGGGTKVEIKR
notes: also called MB435 N56Q
Work on B1 yielded an O.D. [1] of 3.18 O.D, an O.D. [2] of 3.1 O.D and an O.D. [3] of 0.015 O.D. For the same binder, the O.D. [4] was 0.167 O.D, the O.D. [5] was -0.015 O.D and the O.D. [6] was 0.018 O.D. The O.D. [7] was 0.009 O.D, the O.D. [8] was 0.019 O.D and the O.D. [9] was -0.001 O.D. For the same binder, the O.D. [10] was 0.039 O.D, the O.D. [11] was 0.048 O.D and the O.D. [12] was 0.009 O.D. The O.D. [13] was 0.018 O.D.

B2: XAB1 (antibody, human IgG1, kappa, V domains shown)
VH: B1 VH
VL: B1 VL with N30I, W31S, E32A, Q56N
notes: human IgG1/kappa monoclonal antibody; also called parental XAB1; XAB1 IgG
In the case of B2, the O.D. [1] is reported as 2.75 O.D, the O.D. [2] is reported as 2.64 O.D and the O.D. [3] is reported as -0.11 O.D. For the same binder, the O.D. [4] was -0.049 O.D, the O.D. [5] was -0.044 O.D and the O.D. [6] was 0.058 O.D. For the same binder, the O.D. [7] was -0.097 O.D, the O.D. [8] was 0.125 O.D and the O.D. [9] was -0.086 O.D. The O.D. [10] was 0.335 O.D, the O.D. [11] was 0.059 O.D and the O.D. [12] was 0.289 O.D. It also gave an O.D. [13] of 0.146 O.D.
